Test results from publication PMC5658516.

Target: OTULIN-diUb adduct (endogenous OTULIN coupled to bio-Ub_(G76Dha)-Ub) (human (endogenous in HEK293 and Jurkat T cells) | not stated) (UniProt Q96BN8)
Experiment: pull-down; biotin-PD of the OTULIN-diUb adduct formed in extracts of transfected HEK293 cells or of Jurkat T cells (with or without TNF-α, 20 ng/mL) on streptavidin agarose, three washes with co-IP buffer; western blot of eluate, input and supernatant

Question: For “endogenous HOIL-1 (from UniProt Q9BYM8 1-510) (natural protein)”, which percent of the protein removed from the extract by the biotin-PD is on record?
Answer: 25%

Question: How did the percent of the protein removed from the extract by the biotin-PD turn out when “endogenous HOIP (from UniProt Q96EP0 1-1072) (natural protein)” was run?
Answer: 25%

Question: For “endogenous SHARPIN (from UniProt Q9H0F6 1-387) (natural protein)”, which percent of the protein removed from the extract by the biotin-PD is on record?
Answer: 25%
